The nature of the data set: soluble on expression in E. coli; label from the status in PepcDB or PDB records.
With “MSLGRFKTLLNQEDYLILHGALGTELEFLGYDVSGKLWSAKYLLENPSIIQTIHETYLRSGSDIVTTSSYQASYQGLCDYGLSQEEAEKMIALTVSLAKNAREKVWQELSEKEKQVRPYPLISGDVGPYAAYLADGSEYTGNYGQLDKEVLKDFHRSRIKILVDEGSDLLALETIPNFLEAQALVELLQEEFPSVEAYMSFTAQNGTTISDGTAIEEVAELIDKASQILALGINCSSPSVYSSLLKKIADITDKPLVTYPNSGEVYDGQHQMWTQSADISHTLLENTKIWHTFGAKVVGGCCRTRPNDIESLSRGLREEGHHHHHH”, the “soluble on expression in E. coli” value is “soluble”. Regarding “MYHVFFNRRPTRPRLPRALYEQLAALPLNTEVNVHTTNETHYNALFLGFEPRTNNVSLLVDRFYKDGGRSLAIDATTITAIDLPVSMRPASSADSDDEEE”, the “soluble on expression in E. coli” value is “not soluble”. As for “MGHHHHHHSHMLRVLLSAQTSPARLSGLLLIPPVQPCCLGPSKWGDRPVGGGPSAGPAQGLQRLLEQAKSPGELLRWLGQNPSKVRAHHYSVALRRLGQLLGSRPRPPPVEQVTLQDLSQLIIRNCPSFDIHTIHVCLHLAVLLGGTEVGPALWATELPAPGTAVYALP”, the entry is “not soluble”. Under “MARYYVLDLSEDFRRELRETLAEMVNPVEVHVFLSKSGCETCEDTLRLMKLFEEESPTRNGGKLLKLNVYYRESDSDKFSEFKVERVPTVAFLGGEVRWTGIPAGEEIRALVEVIMRLSEDESGLEDATKEALKSLKGRVHIETIITPSCPYCPYAVLLAHMFAYEAWKQGNPVILSEAVEAYENPDIADKYGVMSVPSIAINGYLVFVGVPYEEDFLDYVKSAAEGRLTVKGPIRAGEAEEL” stands “soluble”. Under “MAISRELVDPNSSPREIEVSEPREVGITELVLRDAHQSLMATRMAMEDMVGACADIDAAGYWSVECWGGTTYDSCIRFLNEDPWERLRTFRKLMPNSRLQMLLRGQNLLGYRHYNDEVVDRFVDKSAENGMDVFRVFDAMNDPRNMAHAMAAVKKAGKHAQGTICYTISPVHTVEGYVKLAGQLLDMGADSIALKDMAALLKPQPAYDIIKAIKDTYGQKTQINLHCHSTTGVTEVSLMKAIEAGVDVVDTAISSMSLGPGHNPTESVAEMLEGTGYTTNLDYDRLHKIRDHFKAIRPKYKKFESKTLVDTSIFKSQIPGGMLSNMESQLRAQGAEDKMDEVMAEVPRVRKAAGFPPLVTPSSQIVGTQAVFNVMMGEYKRMTGEFADIMLGYYGASPADRDPKVVKLAEEQSGKKPITQRPADLLPPEWEKQSKEAATLKGFNGTDEDVLTYALFPQVAPVFFEHRAEGPHSVALTDAQLKAEAEGDEKSLAVAGPVTYNVNVGGTVREVTVQQATRASQPELAPEDPEDLEHHHHHH” stands “soluble”; under “HVHVVSNEILGLTNLLKDKKIKSKVIQFEVQFPTEEVAAHLSIDQKTPVYYVVRLRIVEGEPYVLEKTYMPTHLIPGINDDVLHDSIYNHITNVLQLKIAGTHRKIRACKSDHIDQQHLGCKQDDPILEVEHVGFLDTGIPFEYSFSRHRHDKFVVTSVNIRR”, “not soluble”; under “GMSSTSSKVVLHPTMLNCMRGLHKKAVLPEPVLDRGIELARAFVGGRRARGQRVERQPDVAAACLMIAAEEAQQPLPLAEVRCLDSSLGDVELRRADIVRELHLEDSERRLRDTFADNLLVKYILKLGLQVSLYLPHCKRLLTALGRVEALAGLTVADRVTTALLLARTAQTLSWEQGTHISKGKECDLGMEAIYANFSSKAHLEVTKVNKIMHLAVDVLPLIQAAFQDCGEPTAGKRKVDKNSEPEASGGTKRVKREET”, “soluble”.

For “MKSIVGVYETPQETIAAIEGLLTKGYDSDDISVVTSRRDTDYLESRTGTEVNQAIDAHQDESESFFDKLKDYFTMDDTATHSKALSDLDIKTDEIDKYQEDLDDGKLLVAVDTDADVIAPIDNGNALSGGFSSTNELDYTTKEEKTMPLREEQLKVDKEDVQTGEVEIGKEVKTEKRDMDIPVRHDEIYVERRPVDENKTDAAPVNDSEEIRVPIVEEKLEVTKKPVVTDEVVVGKRTVEENEHISETVKKEEPRLNKEGKVDGLDDDPLNNQMKIIDRQPKNLKSLEHHHHHH”, the “soluble on expression in E. coli” value was “soluble”. As for “MGSDKIHHHHHHMDDAMVSAVTCGAVMAFDRNIWIEKFLENSVPSFPCPHCSRGVLGFDGKSFWKEEPKHSKDAHAHDDWDPTWIEERFVMFLRCGVAKCGEVVAVSGNIEVEEVVDEDEGYDFASVLYPTSLVPAPPIIQMTDGTPDEVAGELSLAFQLFWADLGASATKIRTSVERLMDHFKVARYSRTKGKLKPIPLYNRIEAFIKANGKVVHQDHLHALRVVGNLGTHKNSLTRSDILEAFQVYEHALDELIGKKSASIAKLARKLKKK”, the entry is “not soluble”. As for “MKAPVRVAVTGAAGQIGYSLLFRIAAGEMLGKDQPVILQLLEIPQAMKALEGVVMELEDCAFPLLAGLEATDDPKVAFKDADYALLVGAAPRKAGMERRDLLQVNGKIFTEQGRALAEVAKKDVKVLVVGNPANTNALIAYKNAPGLNPRNFTAMTRLDHNRAKAQLAKKTGTGVDRIRRMTVWGNHSSTMFPDLFHAEVDGRPALELVDMEWYEKVFIPTVAQRGAAIIQARGASSAASAANAAIEHIRDWALGTPEGDWVSMAVPSQGEYGIPEGIVYSFPVTAKDGAYRVVEGLEINEFARKRMEITAQELLDEMEQVKALGLI”, the entry is “soluble”. “MQKLINSVQNYAWGSKTALTELYGIANPQQQPMAELWMGAHPKSSSRITTANGETVSLRDAIEKNKTAMLGEAVANRFGELPFLFKVLCAAQPLSIQVHPNKRNSEIGFAKENAAGIPMDAAERNYKDPNHKPELVFALTPFLAMNAFREFSDIVSLLQPVAGAHSAIAHFLQVPNAERLSQLFASLLNMQGEEKSRALAVLKAALNSQQGEPWQTIRVISEYYPDDSGLFSPLLLNVVKLNPGEAMFLFAETPHAYLQGVALEVMANSDNVLRAGLTPKYIDIPELVANVKFEPKPAGELLTAPVKSGAELDFPIPVDDFAFSLHDLALQETSIGQHSAAILFCVEGEAVLRKDEQRLVLKPGESAFIGADESPVNASGTGRLARVYNKL”: the “soluble on expression in E. coli” value is “not soluble”. Take “MNPVHILAKKGEVAERVLVVGDPGRARLLSTLLQNPKLTNENRGFLVYTGKYNGETVSIATHGIGGPSIAIVLEELAMLGANVFIRYGTTGALVPYINLGEYIIVTGASYNQGGLFYQYLRDNACVASTPDFELTNKLVTSFSKRNLKYYVGNVFSSDAFYAEDEEFVKKWSSRGNIAVEMECATLFTLSKVKGWKSATVLVVSDNLAKGGIWITKEELEKSVMDGAKAVLDTLTS”: the “soluble on expression in E. coli” value is “soluble”. Under “MGSDKIHHHHHHMHNHPAKRINSIKLCLDVKVALTPQTESRDMAASSKDAAFWSKISRKYAADPIRNMDGYLQTLDRTKSYLKPEDHVLEIGCGTGSTALLLAPHVAHITGTDLAPGMIEIAAEKRAKEGLENVTFKVAETLDHNPQDGAYDAILAHNLLHLLHDLDQSLQRIAALTKTGGVFISKTVCAPKAGGIKYALIRALAIPLMQRIGKAPYVNFISVPDLERRIERAGFEICEVISQPGLMQSHYVVARKL” stands “not soluble”.

For the sequence “MLRCADGALYTGVSTDVARRYRQHQAGKGARYTRLNPPLAVELVIEYPDRSAALRAEHAFKRLSAAAKRDFLRAHGDAGPSSLEHHHHHH”, the “soluble on expression in E. coli” value was “not soluble”.

“GPGSMVRSSSSSSAPLWKNQGGGSATAGAVASTTSPWLLRQLALAHFHNGDIQESADAFEQLLRTAPWELTNPALIFYSTALWHLKSESALGSLAQRLTDAEPLSATTLCVVANAYSLIKDPRDALVMLKRAVQVAPTLAYAHALHGYELLGQDSKAEAEAEFKAALAVDASLYIAYAGLGERFMREEQIDKARGYYKEAVKLNPTPAIVNRFALTYHRQGKSLADLKTALRLYTESLERHPNNVTARRQRADVLLRLDQPMQALEELKALLVQCPGEAVVYVTLAECMVCLRRPHEALQHYQTAMHLDPRRESYVQGCIDQLVAANML”: the “soluble on expression in E. coli” value was “soluble”. As for “MQRNLSHIISQATSAPLLLEPAYARVFFCALGRESGINSLHIPGNNESLDQSDMALVTGDFMATGKPQARFYQVVNGIAVLPVTGTLVHKLGGMRPFSGMTGYDGVTARLQQAVSDPEVKGILLDIDSPGGQAAGAFDCADMIYRMREQKPVWALANETACSAAMLLAAACSHRLVTQTSRMGSIGVVMAHTSYAEKLKQEGIDITLIYSGAHKADLTPSQKLPESVYADYQQRMDEARKMFAEKVARYTGLSVDAVMATEAAVYDGQAIITTGLADGMVNAADAIGVMAEAINSNKTGGTMPELSAADAVTQENQRVMGILGCPEARGHEALAQMLAGQPGMSVAQAKSILAAAAPADTTSTADRILALEEAGGRETLAQTLAAMPEMTVEQARTILAASPIAAATSLHDAVMALDEAKGREELAEKLAVMPGMTTDQARDLLAAAPDKSGNAGLSMNNAFDAFMQSHSPGPISGGKGHSNDTETTLLMSIPGTSATLEHHHHHH”, the entry is “not soluble”. For “QSRTPTIFFHGYGSSANAETHMTNAAKKAGVTKTVILAYVDQNGHVTLVGKIPKNAINPIVKVNFADNRNADYDTDAKYAKAVVSKLQKTYHFKKMNMVGHSMGNMAINFYMLANAEDKTLPQLQKQVDIAGHFDGIKNYDLPQNLTINAKTGQPNAMTAAYKRLLKLQERYPKDQVDVLNLYGDKGDGSDGIVTNDSSRTLKYLIGERAKSYQEHRFTGKLAGHSKLHENPQVDKFLINFLWGK”, the “soluble on expression in E. coli” value is given as “not soluble”. Consider “MSLEDNERVDHLIKEGYEIIQNDEVFSFSTDALLLGYLTEVRKNDKVMDLCSGNGVIPLLLAAKSTQPIEGIEIQEQLVSMARRSFKLNDLNDRLTMHHMDLKDVYQTFQPAQYTLVTCNPPYFKMNQNHQHQKEAHKIARHEIMCNLKDCIEAARHLLKEGGRFIMVHRAERLMDVLTELRHGKIEPKALTLVYSKHDKPAQTIVVEGRKGGNQGLDIRNPLYIYNEDGSYSDEMKGVYYGEGHHHHHH”, for which the “soluble on expression in E. coli” value is given as “soluble”. Under “GPSPVGQQYHVEKFSGLRIRKPRVSSSEMERKMNGRKLIRLAQLQNKIATEKLEEEDWVTFGVIVKKITPQSSNNGKTFSIWRLNDLKDLDKYISLFLFGDVHKEHWKTDQGTVIGLLNANPMKPKEGTDEVCLSVDNPQKVLLMGDAVDLGTCKARKKNGDPCTQMVNLNDCEYCQYHVQAQYKKVSSKRADLQSSYSG” stands “soluble”; under “MEKQEEEDVKRRQRQKAATSLGFLHWEELKNHGDLSKVALNIALTTLVDDASTGFCIMNLVNLIVLRESSQGYLLTYEGKLASLASATYVKAFISLWVLEDAERHAWSFRTFSLTFPLDDPILDTFLELTGVTEAGEFVYAPTTLQSPFHALYFDPQRNSFRRVIYEGLADDEFRRRNRLGYERHHILPNHIESLISL”, “soluble”; under “MERTFSEALKNRRTYYSITDQSPIPDQEIECIINLAVRHVPSAFNSQSTRVVLLLGKSHKKLWNIVKDALRKIVPGEAFAKTEEKIDNSFACGYGTVLFFEDQKVVKGLQEAFPSYQENFPGWSLQTSAMHQLAVWVMLEDVGFGASLQHYNPLIDDEVRRAWNLPAHWHLIAEMPFGVPVNKPGEKEFQPLEERIKVFK”, “not soluble”. As for “MRKIHFTDKYLLSPYHPVTVLVAGAGGTGSQVITSLARMSVALQALGHPGLHLTAFDPDTVTEANIGRQLFSETELGLNKATALVTRVNRFFGYAWEARECRYPIITKEGDKSVPLANIIITCTDNTRSRLDLWRFLKKYREYKKNDEKAPIYWMDFGNAQTTGQVLIGNIRSKISQPASSEYLPMPRMNVITEEVSYSTIREEDSGPSCSLAEALRKQDLFINSMLAQIGCDILWCMFREGRTFYRGAYLNLDTLRVNPIPV”, the entry is “not soluble”.

The values above are taken from the DeepSol protein solubility set.
